Reference: patent US20240239872A1 (SHANDONG AGRICULTURAL UNIVERSITY, published 2024)

B1: monoclonal antibody C1 (antibody, V domains shown)
VH: EVQLQQSGAELVRPGALVKLSCKASGFNIKDYYMHWVKQRPEEGLEWIGWIDPENGNTIYDPKFQGKASITADTSSNTVRLQLSSLTSEDTAVYYCARERGAYWGQGTLVTVSA
VL: QIVLTQSPAIMSASPGEKVTMTCSASSSVSYMYWFQQKPGSSPRLLIYDTSNLASGVPVRFSGSGSGTSYSLTISRMEAEDAATFYCQQWSSYPLTFGAGTKLELK
notes: also called MAb C1
B2: monoclonal antibody M3 (antibody, V domains shown)
VH: EVILVESGGGLVKPGGSLRLSCAASGFTFSSHPLSWVRQSPDKRLEWVASISSGGRYTYYPDSVKGRLTISRDNAKNILYLHMNSLRSEDTAMYYCARRGSTATAWFAYWGQGTLVTVSA
VL: DIALTQSPASLAVSLGQRATISCKASQSVDYDGDSYMSWYQQKPGQPPKLLIYGASNLESGIPARFSGSGSGTDFTLNIHPVEEEDAATYYCQQSNEDLPTFGGGTKLEIK
notes: also called MAb M3
B3: monoclonal antibody M1 (antibody, V domains shown)
VH: QVQLQQSGPELVRPGASVKMSCKTSGYPFSTYWMHWVKQRPGQGLEWIGMIKPSNSETSLNQKFKDKATLNVDKSSNTAYMQLNSLTSEDSGVYYCARAGDSWGQGTTLTVSS
VL: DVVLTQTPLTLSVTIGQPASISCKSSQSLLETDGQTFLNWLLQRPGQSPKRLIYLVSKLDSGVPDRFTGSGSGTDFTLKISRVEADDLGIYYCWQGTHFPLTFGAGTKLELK
notes: also called MAb M1
B4: monoclonal antibody M2 (antibody, V domains shown)
VH: EVQLVESGGGLVQPKGSLKLSCAASDFTFNTHSMNWVRQAPGKVLEWIARIRSQSNNYATYYADSVKDRFTISRDDSQNMFYLQMNNLKTEDTAMYYCAGDYYGPFAYWGQGTLVAVSA
VL: DVLMTQTPLSLPVSLGDQASISCRSGQSLVHSNGNTYLHWYLQKPGQSPKLLIYKVSNRFSGVPDRFSGSGSGTDFTLKISRVEAEDLGVYFCSQSTHVPWTFGGGTKLEIK
notes: also called MAb M2
B5: monoclonal antibody N1 (antibody, V domains shown)
VH: EVQLVESGGGLVQPGGSLKLSCAASGFTFSSYGMSWVRQSPDKRLEWVATINNNGGSTYYPDSVKGRFTISRDNAKNTLYLQMSSLKSEDTAVYYCARDAAFDCWGQGTTLTVSS
VL: DIVMSQSPSSLAVSAGEKVTMSCKSSQSLLNSRTRKNYLAWYQQKPGQSPKLLIYWASTRESGVPDRFTGSGSGTDFTLTISSVQAEDLAVYYCKQSYNLFTFGSGTKLEIK
notes: also called MAb N1

Experiments:
[1] = target: T1, PVY in juice of infected plants (coat protein on virus) (Potato virus Y); assay: indirect ELISA (antigen not stated)
[2] = target: T1, PVY in juice of infected plants (coat …); assay: dot-ELISA on diluted juice of PVY-infected plants

Binder	Titer [1]	dilution of PVY-infected juice still detected [2]
B1	243000 reciprocal dilution	5120 times (fold dilution)
B2	243000 reciprocal dilution	5120 times (fold dilution)
B3	243000 reciprocal dilution	5120 times (fold dilution)
B4	243000 reciprocal dilution	640 times (fold dilution)
B5	243000 reciprocal dilution	10200 times (fold dilution)
